From patent US20070166787A1 (YEDA RESEARCH AND DEVELOPMENT, published 2007) come the findings set out here.

B1: death domain (DD) of human MORT-1, residues 92-208, Gal4 hybrid construct (other, not shown: large carriers)
chain: PGEEDLCAAFNVICDNVGKDWRRLARQLKVSDTKIDSIEDRYPRNLTERVRESLRIWKNTEKENATVAHLVGALRSCQMNLVADLVQEVQQARDLQNRSGAMSPMSWNSDASTSEAS
notes: Yeast two-hybrid fusion; also called MORT-1 DD; HF1
B2: death domain (DD) of human p55 TNF-R, residues 326-426, Gal4 hybrid construct (receptor, not shown: large carriers)
chain: DPATLYAVVENVPPLRWKEFVRRLGLSDHEIDRLELQNGRCLREAQYSMLATWRRRTPRREATLELLGRVLRDMDLLGCLEDIEEALCGPAALPPAPSLLR
notes: Yeast two-hybrid fusion; also called p55-R; p55 TNF-R DD
B5: death domain (DD) of human TRADD, residues 195-312, Gal4 hybrid construct (other, not shown: large carriers)
chain: PPPPAQTFLFQGQPVVNRPLSLKDQQTFARSVGLKWRKVGRSLQRGCRALRDPALDSLAYEYEREGLYEQAFQLLRRFVQAEGRRATLQRLVEALEENELTSLAEDLLGLTDPNGGLA
notes: Yeast two-hybrid fusion; also called TRADD DD

In one data set the target is T1, SNF 1 (UniProt P06782 1-633, limits assumed).
T1 sequence (looked up): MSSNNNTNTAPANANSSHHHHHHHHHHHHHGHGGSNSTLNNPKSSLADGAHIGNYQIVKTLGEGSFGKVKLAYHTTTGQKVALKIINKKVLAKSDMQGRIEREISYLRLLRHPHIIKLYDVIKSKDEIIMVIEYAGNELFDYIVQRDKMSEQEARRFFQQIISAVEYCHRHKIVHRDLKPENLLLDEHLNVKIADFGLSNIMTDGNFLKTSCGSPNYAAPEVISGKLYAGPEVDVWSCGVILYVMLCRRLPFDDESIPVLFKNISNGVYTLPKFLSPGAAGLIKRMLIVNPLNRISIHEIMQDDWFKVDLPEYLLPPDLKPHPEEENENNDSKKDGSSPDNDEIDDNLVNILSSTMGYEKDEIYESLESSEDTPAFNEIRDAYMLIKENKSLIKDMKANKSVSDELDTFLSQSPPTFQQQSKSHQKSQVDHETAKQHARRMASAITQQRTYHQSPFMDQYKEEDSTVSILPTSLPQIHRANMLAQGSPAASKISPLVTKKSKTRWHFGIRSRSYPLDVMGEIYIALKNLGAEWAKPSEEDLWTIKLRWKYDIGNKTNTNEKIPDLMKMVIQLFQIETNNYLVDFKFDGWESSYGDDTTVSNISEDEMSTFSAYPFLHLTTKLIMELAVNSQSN
As to the kind of experiment: yeast two-hybrid specificity test (not shown).

Data set [1] concerns the target T2, intracellular domain of the human p75 TNF receptor (human, UniProt P20333 288-461, limits assumed).
T2 construct: domain: intracellular domain; Irrelevant control in the two-hybrid specificity test; construct not described; also called p75 IC
T2 sequence (looked up): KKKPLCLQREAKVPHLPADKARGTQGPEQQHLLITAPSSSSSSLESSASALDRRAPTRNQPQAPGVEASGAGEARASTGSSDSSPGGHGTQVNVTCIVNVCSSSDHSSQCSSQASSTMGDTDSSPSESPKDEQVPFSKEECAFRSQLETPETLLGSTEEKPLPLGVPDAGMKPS
Put plainly: yeast two-hybrid specificity test (not shown).

In data set [2] the target is B5. As to the kind of experiment: yeast two-hybrid, beta-galactosidase filter assay, SFY526. The text has this: (§1) Two-Hybrid β-Galactosidase Expression Tests. cDNA inserts were cloned by PCR, either from the full-length cDNAs cloned previously in our laboratory, or from purchased cDNA libraries. Residue numbering in the proteins encoded by the cDNA inserts are as in the Swiss-Prot Data Bank. Point mutants were produced by oligonucleotide-directed mutagenesis (Kunkel, 1994). β-galactosidase expression in yeasts (SFY526 reporter strain (Bartel et al, 1993)) transformed with these cDNAs in the pGBT-9 and pGAD-GH vectors (DNA binding domain (DBD) and activation domain (AD) constructs, respectively) was assessed by a filter assay (Boldin et al, 1995). When expressed in the pGAD-GH vector, RIP and its DD had some cytotoxic effect on the yeasts, manifested in a low yield of yeast colonies.
(§2) The interactions of the DDs of human p55 TNF-R, FAS-R, TRADD, MORT-1 and RIP were evaluated first by a yeast two-hybrid test. The cDNAs encoding these domains were expressed as fusion proteins with the Gal4 DNA binding and activation domains (DBD and AD constructs) in the yeast SFY526 reporter strain, and the binding of these fusion proteins to each other was assessed by determining β-galactosidase expression by the yeasts. The results of these tests are summarized in FIG. 1 and illustrated diagrammatically in FIG. 3.

Data set [3] concerns the molecule itself. Put plainly: yeast two-hybrid, self-association, beta-galactosidase filter assay, SFY526.
Description: as §1, §2

Data set [4] concerns the target B5. Put plainly: yeast two-hybrid (summing up of Example 2).
Description: as §1, §2

In data set [5] the target is B1. As to the kind of experiment: yeast two-hybrid, beta-galactosidase filter assay, SFY526.
Description: as §1, §2

Data set [6] concerns the target B1. As to the kind of experiment: yeast two-hybrid, beta-galactosidase filter assay.
Description: (§3) FIG. 2 depicts interactions of the ‘death domains’ of the P55-R, Fas/APOI, MORT-1, TRADD and. RIP in a yeast two-hybrid test, and the effect of lbr^cg-like mutations in these proteins on their interactions. Assessment of the interaction of Gal4 hybrid constructs encompassing the following human proteins, truncated upstream to their DD motifs: p55-R (residues 326-426), FAS-R (residues 210-319), MORT-1 (residues 92-208), TRADD (residues 195-312) and RIP (residues 261-372), as well as of the following points mutants of these proteins: p55-R L35IN, FAS-R V238N, MORT-1 V121N, and RIP F308N, whose mutation sites within the DDs correspond to that found in the FAS-R of the lpr^cg mice. Each cDNA insert was introduced both into the Gal4 DNA binding domain (DBD) and the Gal4 activation domain (AD) constructs (pGBT9 abd pGAD-GH), and the binding of the inserts in both constructs to all other inserts within transfected SFY526 yeasts was assessed by a β-galactosidase expression filter assay. The results are presented in terms of the time required for development of strong color. ND—not done.
as §1

Data set [7] concerns the molecule itself. Put plainly: yeast two-hybrid, beta-galactosidase filter assay.
Description: as §3, §1

The target of data set [8] is B5. Put plainly: yeast two-hybrid, beta-galactosidase filter assay.
Description: as §3, §1

Data set [9] addresses B2. Put plainly: yeast two-hybrid specificity test (not shown).
Data set [10] deals with B1. Put plainly: yeast two-hybrid specificity test (not shown).
The target in data set [11] is B5. Put plainly: yeast two-hybrid specificity test (not shown).
Data set [12] concerns the molecule itself. Put plainly: yeast two-hybrid, beta-galactosidase filter assay, SFY526.
Description: as §1, §2

With B1, the binding result with SNF 1 is listed as “no binding”; in [1], “no binding”; in [2] it was “binds”; in data set [3], “no binding”.
Consider B2, for which the binding result in the data set with SNF 1 was “no binding”; in data set [1], “no binding”; in data set [4] it was “binds”; in [5] it was “no binding”.

B3: human p55 TNF-R DD (residues 326-426) point mutant L351N, Gal4 hybrid construct (receptor, not shown: large carriers)
chain: DPATLYAVVENVPPLRWKEFVRRLGNSDHEIDRLELQNGRCLREAQYSMLATWRRRTPRREATLELLGRVLRDMDLLGCLEDIEEALCGPAALPPAPSLLR
notes: Legend prints 'L35IN'; also called p55-R L35IN; p55 TNF-R (L351N)
For the molecule B3, the binding result in data set [6], in data set [7] and in data set [8] was “no binding” throughout.

B4: DD of the rat low-affinity NGF receptor (receptor, UniProt P07174 340-425, looked up)
chain: LPLTKREEVEKLLNGDTWRHLAGELGYQPEHIDSFTHEACPVRALLASWGAQDSATLDALLAALRRIQRADIVESLCSESTATSPV
notes: domain: DD; Control in the two-hybrid specificity test; construct not described; also called rat NGF-R DD
Turning to B4, the binding result in data set [9], in data set [10] and in [11] was “no binding” in each case.
Turning to B5, the binding result was “no binding” with SNF 1, “no binding” in data set [1] and “binds” in [12].
